According to patent publication US20250262210A1 (TRUSTEES OF COLUMBIA UNIVERSITY IN THE CITY OF NEW YORK, published 2025):

How the values were obtained:
Assay in all cases: IP/MS, LZTR1 wild type-FLAG, U87
AP4E1 = target: T1, AP4E1 (human, UniProt Q9UPM8 1-1137, limits assumed)
T1 sequence (looked up): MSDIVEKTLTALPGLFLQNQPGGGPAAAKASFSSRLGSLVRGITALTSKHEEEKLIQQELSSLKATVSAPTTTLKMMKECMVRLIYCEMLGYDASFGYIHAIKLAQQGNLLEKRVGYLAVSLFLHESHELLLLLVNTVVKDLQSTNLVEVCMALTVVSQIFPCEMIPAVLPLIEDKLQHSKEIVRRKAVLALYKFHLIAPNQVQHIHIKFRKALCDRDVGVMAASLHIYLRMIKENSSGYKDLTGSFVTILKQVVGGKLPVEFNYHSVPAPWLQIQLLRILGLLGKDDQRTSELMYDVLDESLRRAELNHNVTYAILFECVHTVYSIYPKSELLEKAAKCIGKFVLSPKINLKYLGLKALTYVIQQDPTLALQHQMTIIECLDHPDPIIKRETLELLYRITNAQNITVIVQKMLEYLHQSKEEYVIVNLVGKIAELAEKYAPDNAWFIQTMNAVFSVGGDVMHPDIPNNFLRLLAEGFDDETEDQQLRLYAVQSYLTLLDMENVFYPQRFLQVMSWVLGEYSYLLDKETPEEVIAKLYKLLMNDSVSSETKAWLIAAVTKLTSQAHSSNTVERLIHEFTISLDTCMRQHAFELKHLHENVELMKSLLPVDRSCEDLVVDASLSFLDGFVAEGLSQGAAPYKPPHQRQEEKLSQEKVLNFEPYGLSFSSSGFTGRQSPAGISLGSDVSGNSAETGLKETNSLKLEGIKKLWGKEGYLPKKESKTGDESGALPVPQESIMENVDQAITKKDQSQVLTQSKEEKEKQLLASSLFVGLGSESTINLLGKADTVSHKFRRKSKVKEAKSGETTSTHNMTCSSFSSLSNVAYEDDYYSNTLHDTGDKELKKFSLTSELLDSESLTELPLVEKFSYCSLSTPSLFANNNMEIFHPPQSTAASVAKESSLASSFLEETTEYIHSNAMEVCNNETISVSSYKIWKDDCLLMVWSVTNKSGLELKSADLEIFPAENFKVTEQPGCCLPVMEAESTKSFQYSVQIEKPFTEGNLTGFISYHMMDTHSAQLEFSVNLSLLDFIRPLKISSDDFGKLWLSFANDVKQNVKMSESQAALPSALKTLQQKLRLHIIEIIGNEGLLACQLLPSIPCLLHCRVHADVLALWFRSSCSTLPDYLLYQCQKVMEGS
Summary of the method: (§1)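 Extracted peptides in 3% acetonitrile/0.1% formic acid ran on a 50 cm C18 column into an Orbitrap Fusion, with MaxQuant identification and spectral counting.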

IFT172 = IFT172 (human, UniProt Q9UG01 1-1749, limits assumed)
IFT172, sequence (Q9UG01 whole entry): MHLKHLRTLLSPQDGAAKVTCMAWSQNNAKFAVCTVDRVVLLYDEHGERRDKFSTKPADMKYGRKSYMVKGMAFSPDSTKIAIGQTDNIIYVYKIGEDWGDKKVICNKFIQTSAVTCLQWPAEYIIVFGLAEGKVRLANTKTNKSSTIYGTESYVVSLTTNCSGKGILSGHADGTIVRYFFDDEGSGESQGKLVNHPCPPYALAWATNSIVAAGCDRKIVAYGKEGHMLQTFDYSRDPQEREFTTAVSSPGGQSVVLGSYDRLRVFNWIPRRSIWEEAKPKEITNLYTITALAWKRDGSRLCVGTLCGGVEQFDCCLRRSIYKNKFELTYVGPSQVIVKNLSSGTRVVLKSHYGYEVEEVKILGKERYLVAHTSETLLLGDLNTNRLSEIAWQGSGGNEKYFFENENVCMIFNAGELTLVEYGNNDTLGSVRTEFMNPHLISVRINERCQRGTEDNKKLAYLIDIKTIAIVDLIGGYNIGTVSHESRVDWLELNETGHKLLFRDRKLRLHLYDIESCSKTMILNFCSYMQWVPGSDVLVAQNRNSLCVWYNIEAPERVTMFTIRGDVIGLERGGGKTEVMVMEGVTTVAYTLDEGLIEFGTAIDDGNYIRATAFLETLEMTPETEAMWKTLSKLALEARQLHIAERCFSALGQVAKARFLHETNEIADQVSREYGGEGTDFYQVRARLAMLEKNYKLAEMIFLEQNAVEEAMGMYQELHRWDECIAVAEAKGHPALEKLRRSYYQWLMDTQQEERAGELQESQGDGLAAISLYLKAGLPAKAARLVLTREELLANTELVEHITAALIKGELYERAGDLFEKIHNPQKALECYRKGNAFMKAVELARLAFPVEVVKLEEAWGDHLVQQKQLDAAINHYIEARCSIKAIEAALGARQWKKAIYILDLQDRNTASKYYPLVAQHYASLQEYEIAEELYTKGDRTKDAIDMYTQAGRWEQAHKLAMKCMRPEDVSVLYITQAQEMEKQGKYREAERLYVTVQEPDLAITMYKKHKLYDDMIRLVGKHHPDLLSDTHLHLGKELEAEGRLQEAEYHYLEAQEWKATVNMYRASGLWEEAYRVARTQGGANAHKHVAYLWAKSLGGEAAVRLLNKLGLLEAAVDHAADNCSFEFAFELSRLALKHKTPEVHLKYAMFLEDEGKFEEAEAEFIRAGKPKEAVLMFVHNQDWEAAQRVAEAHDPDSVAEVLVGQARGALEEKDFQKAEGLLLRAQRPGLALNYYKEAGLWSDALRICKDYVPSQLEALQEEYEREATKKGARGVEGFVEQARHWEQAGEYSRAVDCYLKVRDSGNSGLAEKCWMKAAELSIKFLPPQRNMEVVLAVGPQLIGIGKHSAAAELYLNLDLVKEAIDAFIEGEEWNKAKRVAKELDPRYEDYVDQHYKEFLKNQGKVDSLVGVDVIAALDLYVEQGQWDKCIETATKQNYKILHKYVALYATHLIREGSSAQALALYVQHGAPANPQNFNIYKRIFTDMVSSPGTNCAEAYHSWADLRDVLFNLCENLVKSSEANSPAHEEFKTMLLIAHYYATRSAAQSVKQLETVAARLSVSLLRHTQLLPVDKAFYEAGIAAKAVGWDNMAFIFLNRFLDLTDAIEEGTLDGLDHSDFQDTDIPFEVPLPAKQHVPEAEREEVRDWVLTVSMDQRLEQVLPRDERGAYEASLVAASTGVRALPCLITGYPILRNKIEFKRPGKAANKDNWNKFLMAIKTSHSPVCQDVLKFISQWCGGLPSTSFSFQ
Summary of the method: as §1

KIF1B = KIF1B (human, UniProt O60333 2-1816, limits assumed)
KIF1B, sequence (O60333 2-1816 limits assumed): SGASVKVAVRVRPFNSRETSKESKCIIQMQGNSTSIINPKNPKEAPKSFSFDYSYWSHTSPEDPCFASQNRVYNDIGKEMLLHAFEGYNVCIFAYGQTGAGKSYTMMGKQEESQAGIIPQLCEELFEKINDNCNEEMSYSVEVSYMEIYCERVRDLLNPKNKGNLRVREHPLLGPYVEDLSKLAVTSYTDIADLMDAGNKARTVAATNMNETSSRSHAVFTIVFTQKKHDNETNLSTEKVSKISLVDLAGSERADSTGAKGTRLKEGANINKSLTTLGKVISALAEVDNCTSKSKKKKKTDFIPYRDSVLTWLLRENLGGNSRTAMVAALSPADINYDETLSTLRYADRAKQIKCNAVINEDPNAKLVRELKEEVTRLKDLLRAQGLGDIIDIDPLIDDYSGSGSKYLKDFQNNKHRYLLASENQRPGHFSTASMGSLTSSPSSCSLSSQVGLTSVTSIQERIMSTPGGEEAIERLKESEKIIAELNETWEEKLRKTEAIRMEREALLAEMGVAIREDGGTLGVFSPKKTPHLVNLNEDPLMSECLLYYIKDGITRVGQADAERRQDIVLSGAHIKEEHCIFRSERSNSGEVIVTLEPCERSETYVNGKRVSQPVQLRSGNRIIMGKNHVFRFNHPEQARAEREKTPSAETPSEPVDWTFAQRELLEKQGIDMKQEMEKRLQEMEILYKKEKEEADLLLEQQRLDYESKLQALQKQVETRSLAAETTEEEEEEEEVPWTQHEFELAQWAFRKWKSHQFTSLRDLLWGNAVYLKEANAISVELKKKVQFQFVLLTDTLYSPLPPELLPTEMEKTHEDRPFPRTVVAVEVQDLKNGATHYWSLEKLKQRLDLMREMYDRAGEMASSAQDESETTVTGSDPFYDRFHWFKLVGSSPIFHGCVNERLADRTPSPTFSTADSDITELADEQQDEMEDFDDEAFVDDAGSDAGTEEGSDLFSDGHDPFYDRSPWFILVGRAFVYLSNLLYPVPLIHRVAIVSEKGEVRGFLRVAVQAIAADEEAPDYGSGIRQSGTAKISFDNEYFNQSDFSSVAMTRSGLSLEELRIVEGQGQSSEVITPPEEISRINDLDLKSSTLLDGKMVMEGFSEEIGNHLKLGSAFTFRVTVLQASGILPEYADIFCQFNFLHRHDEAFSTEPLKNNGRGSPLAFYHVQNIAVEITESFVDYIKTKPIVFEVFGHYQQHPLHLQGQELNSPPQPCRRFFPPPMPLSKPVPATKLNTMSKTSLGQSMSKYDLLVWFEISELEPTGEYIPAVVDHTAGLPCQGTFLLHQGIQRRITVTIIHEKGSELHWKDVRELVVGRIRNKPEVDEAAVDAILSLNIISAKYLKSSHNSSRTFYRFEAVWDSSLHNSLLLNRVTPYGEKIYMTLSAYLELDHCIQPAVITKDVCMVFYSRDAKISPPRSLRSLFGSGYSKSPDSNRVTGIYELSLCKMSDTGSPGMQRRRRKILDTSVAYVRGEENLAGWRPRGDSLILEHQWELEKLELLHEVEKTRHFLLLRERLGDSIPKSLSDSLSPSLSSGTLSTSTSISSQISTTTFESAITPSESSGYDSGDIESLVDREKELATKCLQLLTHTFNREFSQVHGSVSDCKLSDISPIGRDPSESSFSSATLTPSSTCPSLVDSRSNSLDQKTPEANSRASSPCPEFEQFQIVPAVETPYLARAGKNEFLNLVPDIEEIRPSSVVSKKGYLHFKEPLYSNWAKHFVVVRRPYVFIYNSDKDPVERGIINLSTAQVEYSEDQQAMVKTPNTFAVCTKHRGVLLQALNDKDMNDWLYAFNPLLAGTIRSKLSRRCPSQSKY
Summary of the method: as §1

RANBP6 = target: T2, RANBP6 (human, UniProt O60518 2-1105)
T2 sequence (looked up): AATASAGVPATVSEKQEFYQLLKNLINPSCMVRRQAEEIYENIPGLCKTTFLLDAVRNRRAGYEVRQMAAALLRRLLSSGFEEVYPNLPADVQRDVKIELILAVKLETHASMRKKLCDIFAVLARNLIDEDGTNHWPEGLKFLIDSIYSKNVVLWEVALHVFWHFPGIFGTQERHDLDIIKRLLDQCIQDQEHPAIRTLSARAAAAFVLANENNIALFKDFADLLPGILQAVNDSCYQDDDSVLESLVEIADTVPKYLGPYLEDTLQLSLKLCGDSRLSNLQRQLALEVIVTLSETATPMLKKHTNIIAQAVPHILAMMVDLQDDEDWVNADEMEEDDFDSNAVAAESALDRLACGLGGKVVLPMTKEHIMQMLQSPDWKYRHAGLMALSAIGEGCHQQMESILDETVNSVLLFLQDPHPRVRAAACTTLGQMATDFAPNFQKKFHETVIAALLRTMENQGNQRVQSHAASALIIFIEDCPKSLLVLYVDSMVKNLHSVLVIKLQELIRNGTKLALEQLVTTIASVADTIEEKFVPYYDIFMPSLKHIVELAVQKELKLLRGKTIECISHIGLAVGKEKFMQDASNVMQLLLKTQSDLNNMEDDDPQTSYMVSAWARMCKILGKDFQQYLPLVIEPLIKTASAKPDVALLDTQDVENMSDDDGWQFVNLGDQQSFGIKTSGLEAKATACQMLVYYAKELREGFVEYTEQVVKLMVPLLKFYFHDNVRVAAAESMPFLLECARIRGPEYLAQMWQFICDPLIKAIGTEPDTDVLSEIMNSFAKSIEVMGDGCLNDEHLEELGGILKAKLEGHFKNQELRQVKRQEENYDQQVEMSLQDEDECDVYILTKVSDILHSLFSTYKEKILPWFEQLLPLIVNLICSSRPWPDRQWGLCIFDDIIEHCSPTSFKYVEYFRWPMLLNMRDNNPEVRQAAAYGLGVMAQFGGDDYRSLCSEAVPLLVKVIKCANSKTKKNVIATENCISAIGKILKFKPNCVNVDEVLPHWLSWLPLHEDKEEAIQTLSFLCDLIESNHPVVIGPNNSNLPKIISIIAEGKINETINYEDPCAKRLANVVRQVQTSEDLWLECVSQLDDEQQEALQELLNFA
Summary of the method: as §1

binding result (AP4E1): binds
binding result (IFT172): binds
binding result (KIF1B): binds
binding result (RANBP6): binds
B1: LZTR1-FLAG (other, human, UniProt Q8N653 1-840, looked up)
chain: MAGPGSTGGQIGAAALAGGARSKVAPSVDFDHSCSDSVEYLTLNFGPFETVHRWRRLPPCDEFVGARRSKHTVVAYKDAIYVFGGDNGKTMLNDLLRFDVKDCSWCRAFTTGTPPAPRYHHSAVVYGSSMFVFGGYTGDIYSNSNLKNKNDLFEYKFATGQWTEWKIEGRLPVARSAHGATVYSDKLWIFAGYDGNARLNDMWTIGLQDRELTCWEEVAQSGEIPPSCCNFPVAVCRDKMFVFSGQSGAKITNNLFQFEFKDKTWTRIPTEHLLRGSPPPPQRRYGHTMVAFDRHLYVFGGAADNTLPNELHCYDVDFQTWEVVQPSSDSEVGGAEVPERACASEEVPTLTYEERVGFKKSRDVFGLDFGTTSAKQPTQPASELPSGRLFHAAAVISDAMYIFGGTVDNNIRSGEMYRFQFSCYPKCTLHEDYGRLWESRQFCDVEFVLGEKEECVQGHVAIVTARSRWLRRKITQARERLAQKLEQEAAPVPREAPGVAAGGARPPLLHVAIREAEARPFEVLMQFLYTDKIKYPRKGHVEDVLLIMDVYKLALSFQLCRLEQLCRQYIEASVDLQNVLVVCESAARLQLSQLKEHCLNFVVKESHFNQVIMMKEFERLSSPLIVEIVRRKQQPPPRTPLDQPVDIGTSLIQDMKAYLEGAGAEFCDITLLLDGHPRPAHKAILAARSSYFEAMFRSFMPEDGQVNISIGEMVPSRQAFESMLRYIYYGEVNMPPEDSLYLFAAPYYYGFYNNRLQAYCKQNLEMNVTVQNVLQILEAADKTQALDMKRHCLHIIVHQFTKVSKLPTLRSLSQQLLLDIIDSLASHISDKQCAELGADI
notes: Expressed in HEK 293T, HeLa or U87 cells; used as cell lysate; also called LZTR1 wild type-FLAG; LZTR1 WT; not shown: FLAG tag at the C-terminus
